Data: article PMC2628294
Values belong to the substance of their own block, whether it stands above or below them.

Experiments:
[1] = target: soluble human FcγIIIa receptor (human) (UniProt P08637); assay: SPR
[2] = target: GlcNAc-containing IgG1-Fc (2) (human); assay: SEC
[3] = target: yeast-expressed recombinant human IgG1-Fc (1) (human); assay: SEC
[4] = target: yeast-expressed recombinant human IgG1-Fc (1) (human); assay: SDS-PAGE under non-reducing conditions
[5] = target: PNGase F deglycosylated IgG1-Fc (human); assay: SDS-PAGE under non-reducing conditions

Chain of UniProt P08637 (P08637 17-208): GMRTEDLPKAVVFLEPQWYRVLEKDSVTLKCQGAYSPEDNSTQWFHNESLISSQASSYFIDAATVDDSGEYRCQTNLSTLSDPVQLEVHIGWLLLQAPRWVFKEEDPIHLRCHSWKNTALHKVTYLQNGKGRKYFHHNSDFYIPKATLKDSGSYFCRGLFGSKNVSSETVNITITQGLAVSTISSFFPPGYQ

fold less active in binding than the Fc glycoform (4) [1]: > 17 fold | stoichiometry N [2]: 2
Substance: GlcNAc-containing IgG1-Fc (2) (domain or fragment)

stoichiometry N [3]: 2 | stoichiometry N [4]: 2
Substance: yeast-expressed recombinant human IgG1-Fc (1) (domain or fragment)

stoichiometry N [5]: 2
Substance: PNGase F deglycosylated IgG1-Fc (domain or fragment)

fold more active in binding than the CHO-expressed IgG1-Fc [1]: 1.4 fold
Substance: IgG1-Fc glycoform (6), Gal2Man3GlcNAc2-IgG1-Fc (domain or fragment)

fold more active in binding than the CHO-expressed IgG1-Fc [1]: 2 fold
Substance: IgG1-Fc glycoform (4), Man3GlcNAc2-IgG1-Fc (domain or fragment)
